Experimental findings from the supplement of paper PMC12042874 are described below.

± gives the uncertainty stated by the source.

A short description of this data set: amyloid nucleation score (Sup35N fusion, yeast selection) (log enrichment); library NNK2; higher = more nucleation; inactive = no reads after selection. In short, it runs like this: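 Libraries of peptides of 20 random codons fused to Sup35N were expressed in psi-negative yeast and induced 24 hours with 100 μM copper sulfate. Selection was 7 days at 30°C on medium lacking adenine and uracil, and plasmid inserts were Illumina-sequenced before and after selection. Nucleation score is the DiMSum log enrichment of output over input reads, centred on the mode score of non-aggregating sequences, and sequences with under 100 input reads were left out.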
In turn, LGFAMWFTPRFCFTVYNSYD displayed an amyloid nucleation score of -0.422 ± 1.
Consider LGHAISAHVMIIICWKDVFL, for which the amyloid nucleation score stood at 5.08 ± 0.077.
Regarding LGHFSFD, the amyloid nucleation score result was “inactive”.
As to LGIIQTVCRHGLQFMCVSRG, the amyloid nucleation score was -0.122 ± 0.49.
In the case of LGLTYGHHWY it was 3.12 ± 0.071; in that of LGMRLFRNVCYGLPSRSNRR, 1.64 ± 0.41.
With LGPGLDLSIINYEWIIF the figure was -0.202 ± 0.79.
With LGPLVMVFCVRIPYTTMVAW the figure was -1.25 ± 0.45; with LGPMTLATTLFNCKDRHVSP, 0.438 ± 0.29; with LGRCSALGYIRISCTMKGAG, 0.21 ± 0.74.
LGRIHYNLFYVYV displayed an amyloid nucleation score of 2.27 ± 0.14.
LGRKR had an amyloid nucleation score of -0.725 ± 0.76.
With LGSNEPL the figure was -0.337 ± 0.63.
With LGWASYVYGCGRRGGSCRGW the figure was 1.87 ± 0.12; with LGYKVSK, 2.63 ± 0.19.
Substance LGYMVVK registered an amyloid nucleation score of -1.35 ± 0.75.
In the case of LHAHYWCRVSKEPCCWCKMG it was 1.02 ± 0.49.
With LHCLAISFNNFSLMVLYAGN the figure was -0.187 ± 0.54; with LHHYAFFSHM, “inactive”.
In the case of LHIFSSWTRW it was -0.451 ± 0.76; in that of LHIGKFNVNLFN, 4.32 ± 0.045; in that of LHIYTKVHRSR, 3.59 ± 0.13.
LHRTLSRRTEVR returned an amyloid nucleation score of 3.54 ± 0.086.
In the case of LHSCLMCRTSMWSVSIWLKL it was -0.049 ± 0.74; in that of LIAQMM, -1.22 ± 0.48.
In the case of LICLSMSQCMDCNLGNSWWV it was “inactive”; in that of LIERDNTWRATSRCITIESG, 1.17 ± 0.45; in that of LIFCGECTILNTGGGNRAWV, 8.361 ± 0.03.
With LIFRFLGLVMLFQ the entry was “inactive”.
Consider LIFRVFFALTVGIRRIMHML, for which the amyloid nucleation score stood at 5.83 ± 0.059.
In the case of LIGGLVSPISRYEVGWQDAV it was -0.213 ± 0.62.
Turning to LIGYI, the amyloid nucleation score is 1.96 ± 0.11.
In the case of LIIDQVIMNGINVPYTYLIY it was 4.15 ± 0.056; in that of LILNLVFFVIPDTVFYTSGL, 6.732 ± 0.058.
On to LINEFNAKNQSVRIFPVSEK, for which the amyloid nucleation score was -0.645 ± 0.64.
With LINMLGWVRFY the figure was 0.623 ± 0.44; with LIPIRALRHYFRFIVCV, -0.142 ± 0.61; with LISRL, -0.54 ± 1.1.
The substance LIVTLSDRWWEKGASLVESG gave an amyloid nucleation score of 0.699 ± 0.15.
As to LIYRCN, the amyloid nucleation score is -0.673 ± 1.
In the case of LIYVATMWGNHSFYDLWDMQ it was 0.112 ± 0.21; in that of LKCPALRSSSPNDLFVP, 0.626 ± 0.65; in that of LKGCQDLLLVDSGGSTTWYG, -0.836 ± 0.63.
LKIQEPNRYW: the amyloid nucleation score is -0.945 ± 0.76.
In the case of LKIYLCIPHRRL it was 0.082 ± 1.1; in that of LKLCLRCSNIVLPD, -0.434 ± 0.3.
In the case of LKLRSVKSFDFVWMIVAAEV it was 0.482 ± 0.26; in that of LKWDASKAWILRCQCFRELW, -0.678 ± 0.76.
With LKYVLARCFRKCWYVLWTSA the figure was -0.451 ± 0.54; with LKYVVTVHIMFMLSSWSQGC, -0.814 ± 0.79; with LLCCMWFDRWLWTGLAWITV, 0.247 ± 0.24.
On to LLCRTCFRVQYAYDNLVMFL, for which the amyloid nucleation score entry was “inactive”.
LLEAQSISCYRRGVYLLGQL yielded an amyloid nucleation score of 3.32 ± 0.067.
With LLEFTLLTISQRPYTWNTVE the figure was 0.862 ± 0.17; with LLFARK, -0.038 ± 1.1.
For the substance LLFLRYVVYFGNLDCLGLYM, the amyloid nucleation score was -1.44 ± 1.
With LLFPQANMKDRSSPGVDWAQ the figure was 2.72 ± 0.068.
LLGMVNTQLKGNHSYTYKSG yielded an amyloid nucleation score of -1.14 ± 0.55.
